Measured values published in patent publication US9187525B2, “Methods of treating ophthalmic diseases using NPR-B agonists” (Shire Orphan Therapies GmbH, dated 2015).
Numbered stars: 1 amine (or outer) side, 2 acyl side, 3 side chain; on linkers, the order of the positions; unused ones are H or OH. Square brackets hold non-standard residues; d marks the D form. Ends that are not written are not given here. * marks the point of attachment. Pro(trans-4-NH2) = O=C([C@@H]1C[C@@H](N[*:3])CN1[*:1])[*:2]; Sni = (S)-nipecotic acid, O=C([C@H]1CCCN([*:1])C1)[*:2]; Hyp = O=C(O)[C@@H]1C[C@@H](O)CN1; dAoc(2) = CCCCCC[C@@H](N)C(=O)O; Aoc(2) = CCCCCC[C@H](N)C(=O)O; NMeL = CN[C@@H](CC(C)C)C(=O)O; orn(Me2) = not defined here; Octanoyl = CCCCCCCC(=O)*; 1270 = not defined here; 1888 = not defined here; 1913 = not defined here; Adx = not defined here; Che = not defined here; Oct = not defined here; leu = not defined here; thz = not defined here; Occ = octanoic acid

T1: natriuretic peptide receptor-B (human)
T1 chain: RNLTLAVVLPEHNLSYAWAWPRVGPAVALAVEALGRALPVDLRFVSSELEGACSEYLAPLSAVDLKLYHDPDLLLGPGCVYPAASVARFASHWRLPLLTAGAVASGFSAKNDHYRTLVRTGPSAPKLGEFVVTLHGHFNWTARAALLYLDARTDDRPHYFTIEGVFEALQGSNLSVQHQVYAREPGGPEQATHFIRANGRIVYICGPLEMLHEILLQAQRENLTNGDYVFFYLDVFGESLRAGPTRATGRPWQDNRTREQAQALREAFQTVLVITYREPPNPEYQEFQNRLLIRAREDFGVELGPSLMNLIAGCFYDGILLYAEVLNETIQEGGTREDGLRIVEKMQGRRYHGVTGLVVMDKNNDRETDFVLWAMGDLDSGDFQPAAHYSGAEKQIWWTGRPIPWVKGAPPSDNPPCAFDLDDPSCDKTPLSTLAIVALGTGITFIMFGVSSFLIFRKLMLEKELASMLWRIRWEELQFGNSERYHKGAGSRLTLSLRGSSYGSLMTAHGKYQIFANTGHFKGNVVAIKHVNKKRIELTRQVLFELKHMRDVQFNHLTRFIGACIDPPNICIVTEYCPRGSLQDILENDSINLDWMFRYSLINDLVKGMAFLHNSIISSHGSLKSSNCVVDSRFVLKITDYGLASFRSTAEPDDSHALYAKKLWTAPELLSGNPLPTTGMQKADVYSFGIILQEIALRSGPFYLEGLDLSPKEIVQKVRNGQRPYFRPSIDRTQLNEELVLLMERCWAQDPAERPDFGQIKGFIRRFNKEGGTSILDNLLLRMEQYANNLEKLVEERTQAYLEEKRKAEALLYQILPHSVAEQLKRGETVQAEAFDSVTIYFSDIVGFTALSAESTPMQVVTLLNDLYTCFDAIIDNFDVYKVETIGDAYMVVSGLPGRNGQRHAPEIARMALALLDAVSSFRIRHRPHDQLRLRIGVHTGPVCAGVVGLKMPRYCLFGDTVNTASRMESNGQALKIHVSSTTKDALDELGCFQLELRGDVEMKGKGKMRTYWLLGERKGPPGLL

B1: JAL-1807 (peptide)
peptide: Octanoyl-[Aoc(2)][Sni]FLL[Hyp][NMeL]DRI-NH2
modifications: not fully specified (some residues); printed as Occ-Hgl-Sni-Phe-leu-Leu-Hyp-Nml-Asp-Arg-Ile-NH2
B2: JAL-1804 (peptide)
peptide: 1913-[Aoc(2)][Sni]FLL[Hyp][NMeL]DRI-NH2
modifications: not fully specified (some residues); printed as (1913)-Hgl-Sni-Phe-leu-Leu-Hyp-Nml-Asp-Arg-Ile-NH2; reading uncertain
B3: JAL-1808 (peptide)
peptide: H-[Adx][Aoc(2)][Sni]FLL[Hyp][NMeL]DRI-NH2
modifications: not fully specified (residue 5); printed as H-Adx-Hgl-Sni-Phe-leu-Leu-Hyp-Nml-Asp-Arg-Ile-NH2; reading uncertain
B4: JAL-1838 (peptide)
peptide: H-[Adx][dAoc(2)][Sni]F[leu]L[Hyp][NMeL]DRI-NH2
modifications: reading uncertain; also: printed as H-Adx-hgl-Sni-Phe-leu-Leu-Hyp-Nml-Asp-Arg-Ile-NH2
B5: JAL-1837 (peptide)
peptide: 1888-[dAoc(2)][Sni]FLL[Hyp][NMeL]DRI-NH2
modifications: not fully specified (some residues); printed as 1888-hgl-Sni-Phe-leu-Leu-Hyp-Nml-Asp-Arg-Ile-NH2; reading uncertain
B6: JAL-1846 (peptide)
peptide: [Occ][Sni]F[orn(Me2)]L[Pro(trans-4-NH2)][NMeL]VP[Che]
modifications: reading uncertain; also: printed as Occ-Sni-Phe-orn(Me2)-Leu-Tap-Nml-Val-Pro-Che
B7: JAL-1806 (peptide)
peptide: 1888-[Aoc(2)][Sni]FLL[Hyp][NMeL]DRI-NH2
modifications: not fully specified (some residues); printed as (1888)-Hgl-Sni-Phe-leu-Leu-Hyp-Nml-Asp-Arg-Ile-NH2; reading uncertain
B8: JAL-1845 (peptide)
peptide: [Occ][Sni]F[orn(Me2)]L[Hyp][NMeL]VP[Che]
modifications: reading uncertain; also: printed as Occ-Sni-Phe-orn(Me2)-Leu-Hyp-Nml-Val-Pro-Che
B9: JAL-1805 (peptide)
peptide: 1270-[Aoc(2)][Sni]FLL[Hyp][NMeL]DRI-NH2
modifications: not fully specified (some residues); printed as (1270)-Hgl-Sni-Phe-leu-Leu-Hyp-Nml-Asp-Arg-Ile-NH2; reading uncertain

Target: T1, natriuretic peptide receptor-B
Assay: cell-based or functional assay

EC50 group, cGMP in GTM-3 cells [µM] | Binder
≤ 15 | B1
≤ 5 | B2
≤ 1 | B3
≤ 5 | B4
≤ 5 | B5
≤ 5 | B6
≤ 15 | Octanoyl-[thz]FGLKLDRI-NH2 (reading uncertain; also: printed as Occ-thz-Phe-Gly-Leu-Lys-Leu-Asp-Arg-Ile-NH2) [JAL-0739]
≤ 5 | B7
≤ 5 | B8
≤ 1 | [Oct][Sni]F[leu]L[Pro(trans-4-NH2)][NMeL]DR[Che] (reading uncertain; also: printed as Oct-Sni-Phe-leu-Leu-Tap-Nml-Asp-Arg-Che) [JAL-1843]
≤ 5 | [Oct][Sni]F[leu]L[Pro(trans-4-NH2)][NMeL]VP[Che] (reading uncertain; also: printed as Oct-Sni-Phe-leu-Leu-Tap-Nml-Val-Pro-Che) [JAL-1844]
≤ 15 | B9
